Measured values from PMC5070119, “Oligomeric interface modulation causes misregulation of purine 5´-nucleotidase in relapsed leukemia” (BMC Biology, 2016).
Positions count from the first letter of the chain named. Names may count otherwise.

B1: cytosolic purine 5'-nucleotidase (cN-II), full-length wild type (enzyme, human, UniProt P49902 1-561, looked up)
chain: MSTSWSDRLQNAADMPANMDKHALKKYRREAYHRVFVNRSLAMEKIKCFGFDMDYTLAVYKSPEYESLGFELTVERLVSIGYPQELLSFAYDSTFPTRGLVFDTLYGNLLKVDAYGNLLVCAHGFNFIRGPETREQYPNKFIQRDDTERFYILNTLFNLPETYLLACLVDFFTNCPRYTSCETGFKDGDLFMSYRSMFQDVRDAVDWVHYKGSLKEKTVENLEKYVVKDGKLPLLLSRMKEVGKVFLATNSDYKYTDKIMTYLFDFPHGPKPGSSHRPWQSYFDLILVDARKPLFFGEGTVLRQVDTKTGKLKIGTYTGPLQHGIVYSGGSSDTICDLLGAKGKDILYIGDHIFGDILKSKKRQGWRTFLVIPELAQELHVWTDKSSLFEELQSLDIFLAELYKHLDSSSNERPDISSIQRRIKKVTHDMDMCYGMMGSLFRSGSRQTLFASQVMRYADLYAASFINLLYYPFSYLFRAAHVLMPHESTVEHTHVDINEMESPLATRNRTSVDFKDTDYKRHQLTRSISEIKPPNLFPLAPQEITHCHDEDDDEEEEEEEE
notes: cytosolic purine 5'-nucleotidase (cN-II), human, EC 3.1.3.5, 561 residues; full length made by ligating a synthetic C-terminal tail into the truncated construct; Homotetramer; also called wild-type cN-II; NT5C2 product
B2: cytosolic purine 5'-nucleotidase (cN-II) R367Q, full-length (enzyme, human, UniProt P49902 1-561, looked up)
chain: B1 chain with R367Q
notes: cytosolic purine 5'-nucleotidase (cN-II), human, 561 residues, with the relapsed-ALL somatic mutation R367Q; Mutation found in patients with relapsed ALL; Homotetramer; also called R367Q mutant
B3: cytosolic purine 5'-nucleotidase (cN-II) R238W, full-length (enzyme, human, UniProt P49902 1-561, looked up)
chain: B1 chain with R238W
notes: cytosolic purine 5'-nucleotidase (cN-II), human, 561 residues, with the relapsed-ALL somatic mutation R238W; Mutation found in patients with relapsed ALL; Homotetramer; also called R238W mutant
B4: cytosolic purine 5'-nucleotidase (cN-II) L375F, full-length (enzyme, human, UniProt P49902 1-561, looked up)
chain: B1 chain with L375F
notes: cytosolic purine 5'-nucleotidase (cN-II), human, 561 residues, with the relapsed-ALL somatic mutation L375F; Mutation found in patients with relapsed ALL; Homotetramer; also called L375F mutant

Target: the molecule itself
Assay: SEC; Superdex 200 10/300 GL, 50 mM sodium phosphate pH 7.4, 100 mM NaCl, 2 mM TCEP; 200 ul of 0.5 mg/ml protein; calibrated with high molecular weight standards

| Protein | stoichiometry N |
| --- | --- |
| B1 | 4 |
| B2 | 4 |
| B3 | 4 |
| B4 | 4 |
